From patent US20060035329A1 (CARNEGIE INSTITUTION OF WASHINGTON, published 2006) come the findings set out here.

The target of assay [1] is LexA-hr (hr amino acids 575-1215 fused to the lexA DNA binding domain) (rat). The assay can be described thus: yeast two-hybrid, β-galactosidase activity with TRIAC (10^-6 M) against without hormone.
The target of assay [2] is TR (thyroid hormone receptor co-expressed with hr in the reporter assay). Briefly: cell-based or functional assay.
In assay [3] the target is T1, hr fusion protein (hr amino acids 575-1215 fused to either GST or TrpE; which one is not said) (rat, UniProt P97609 549-1181).
T1 construct: also called the hr fusion protein; not shown: fusion partner is GST or TrpE
T1 sequence: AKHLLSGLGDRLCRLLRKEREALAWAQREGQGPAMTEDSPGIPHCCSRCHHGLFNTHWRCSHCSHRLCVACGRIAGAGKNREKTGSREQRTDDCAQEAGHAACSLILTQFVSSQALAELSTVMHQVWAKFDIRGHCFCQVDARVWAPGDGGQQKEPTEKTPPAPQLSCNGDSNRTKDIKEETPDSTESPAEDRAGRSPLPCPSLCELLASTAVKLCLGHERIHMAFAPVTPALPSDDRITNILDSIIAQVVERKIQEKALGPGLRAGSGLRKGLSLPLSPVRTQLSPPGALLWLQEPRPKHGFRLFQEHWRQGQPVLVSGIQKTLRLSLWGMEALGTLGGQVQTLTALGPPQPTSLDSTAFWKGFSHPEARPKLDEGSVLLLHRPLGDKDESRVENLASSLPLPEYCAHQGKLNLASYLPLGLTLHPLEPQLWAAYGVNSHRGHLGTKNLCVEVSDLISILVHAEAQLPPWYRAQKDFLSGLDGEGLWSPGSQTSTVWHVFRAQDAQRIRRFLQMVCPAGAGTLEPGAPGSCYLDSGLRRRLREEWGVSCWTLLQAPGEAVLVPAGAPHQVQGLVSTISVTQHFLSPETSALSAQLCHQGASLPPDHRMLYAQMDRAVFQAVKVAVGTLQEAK
Briefly: far western, 35S-labeled probe on immobilized hr fusion protein.

In the case of “TRα1 (as tested in the two-hybrid assay) (receptor)”, in assay [1], the fold reduction of interaction by hormone was 2 fold.

Molecule “hr (hairless gene product expressed from an expression construct containing the hr gene) (from UniProt P97609 1-1181)” registered a thyroid hormone induced transcription (TRE-containing reporter) in assay [2] of 2 fold.

B1: 35S-RAR (retinoic acid receptor, from pCMX hRARα) (receptor, human, UniProt P10276 1-462, looked up)
chain: MASNSSSCPTPGGGHLNGYPVPPYAFFFPPMLGGLSPPGALTTLQHQLPVSGYSTPSPATIETQSSSSEEIVPSPPSPPPLPRIYKPCFVCQDKSSGYHYGVSACEGCKGFFRRSIQKNMVYTCHRDKNCIINKVTRNRCQYCRLQKCFEVGMSKESVRNDRNKKKKEVPKPECSESYTLTPEVGELIEKVRKAHQETFPALCQLGKYTTNNSSEQRVSLDIDLWDKFSELSTKCIIKTVEFAKQLPGFTTLTIADQITLLKAACLDILILRICTRYTPEQDTMTFSDGLTLNRTQMHNAGFGPLTDLVFAFANQLLPLEMDDAETGLLSAICLICGDRQDLEQPDRVDMLQEPLLEALKVYVRKRRPSRPHMFPKMLMKITDLRSISAKGAERVITLKMEIPGSMPPLIQEMLENSEGLDTLSGQPGGGGRDGGGLAPPPGSCSPSLSPSSNRSSPATHSP
modifications: 35S-methionine label
For the molecule B1, the binding result in assay [3] is reported as “no binding”.

B2: 35S-RXR (retinoid X receptor, from pCMX hRXRα) (receptor, human, UniProt P19793 1-462, looked up)
chain: MDTKHFLPLDFSTQVNSSLTSPTGRGSMAAPSLHPSLGPGIGSPGQLHSPISTLSSPINGMGPPFSVISSPMGPHSMSVPTTPTLGFSTGSPQLSSPMNPVSSSEDIKPPLGLNGVLKVPAHPSGNMASFTKHICAICGDRSSGKHYGVYSCEGCKGFFKRTVRKDLTYTCRDNKDCLIDKRQRNRCQYCRYQKCLAMGMKREAVQEERQRGKDRNENEVESTSSANEDMPVERILEAELAVEPKTETYVEANMGLNPSSPNDPVTNICQAADKQLFTLVEWAKRIPHFSELPLDDQVILLRAGWNELLIASFSHRSIAVKDGILLATGLHVHRNSAHSAGVGAIFDRVLTELVSKMRDMQMDKTELGCLRAIVLFNPDSKGLSNPAEVEALREKVYASLEAYCKHKYPEQPGRFAKLLLRLPALRSIGLKCLEHLFFFKLIGDTPIDTFLMEMLEAPHQMT
modifications: 35S-methionine label
B2: in assay [3], the binding result was “no binding”.
